Data: patent US20230340152A1 (published 2023)

Assays:
KO_Cterm CD73 chimera = target: T1, KO_Cterm CD73 chimera (human; chicken); test: SPR (ProteOn), CD73 variant immobilized on HTG chip
T1 construct: also called C-terminal domain-swapped CD73
T1 chain: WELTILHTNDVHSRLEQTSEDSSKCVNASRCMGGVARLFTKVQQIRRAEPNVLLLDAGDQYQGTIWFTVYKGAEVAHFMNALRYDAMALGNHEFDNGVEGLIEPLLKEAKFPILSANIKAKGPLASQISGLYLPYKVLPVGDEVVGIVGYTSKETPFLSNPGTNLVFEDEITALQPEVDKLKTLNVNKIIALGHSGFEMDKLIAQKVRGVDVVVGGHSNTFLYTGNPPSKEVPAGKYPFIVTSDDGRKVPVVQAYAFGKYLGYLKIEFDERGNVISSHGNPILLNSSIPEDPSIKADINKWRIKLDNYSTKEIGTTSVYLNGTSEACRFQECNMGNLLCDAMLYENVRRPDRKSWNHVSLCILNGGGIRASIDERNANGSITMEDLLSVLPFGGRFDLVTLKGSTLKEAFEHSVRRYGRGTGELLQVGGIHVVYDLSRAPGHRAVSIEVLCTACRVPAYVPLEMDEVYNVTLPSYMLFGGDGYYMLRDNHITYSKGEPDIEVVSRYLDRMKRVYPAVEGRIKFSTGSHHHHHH
Description: (§1) Binding of MEDI9447 to wild-type and mutant CD73 proteins was measured by surface plasmon resonance (SPR) using a ProteOn instrument (BioRad). CD73 crude cell supernatant protein samples were diluted to 3 µg/ml in PBS, 0.005% Tween-20, pH 7.4 (BioRad) and immobilized to ~400 RU on a HTG tris-NTA sensor chip (BioRad) pre-activated with 10 mM NiSO₄, 10 mM MES, pH 6.0 (BioRad). An equivalently diluted crude cell supernatant sample from non-transfected cells was included as a reference channel control. Sensorgrams were recorded by flowing two-fold dilutions of MEDI9447 prepared in PBS, 0.005% Tween-20, pH 7.4, ranging from 5 nM to 0.31 nM. […] Antibody binding was measured at a flow rate of 100 µL/min with a 3 min association phase and 20 min dissociation phase. The sensor chip surface was regenerated between each run by an 800 s injection of 300 mM EDTA, pH 8.5 (BioRad) at a flow rate of 30 µL/min. Binding kinetics were analyzed using the ProteOn data analysis software. Double referencing was performed and, unless noted otherwise, a 1:1 Langmuir binding model was utilized to fit the data. Some CD73 variants containing mutations within the amino acid region 171-188 fit poorly to a 1:1 model (i.e., Chi² values >10% of Rmax). Where noted, these variants were fit with a heterogenous antigen (2:1) model. […] Due to the assay format (antigen immobilized) and the dimeric state of CD73, KD values may be exaggerated due to avidity effects. However, it is not anticipated that this impacts ranking of MEDI9447 binding to the different CD73 variants.

[1] = target: T2, Human CD73 V144K+N185G, His-tagged (human, UniProt P21589 27-549); test: as above
T2 chain: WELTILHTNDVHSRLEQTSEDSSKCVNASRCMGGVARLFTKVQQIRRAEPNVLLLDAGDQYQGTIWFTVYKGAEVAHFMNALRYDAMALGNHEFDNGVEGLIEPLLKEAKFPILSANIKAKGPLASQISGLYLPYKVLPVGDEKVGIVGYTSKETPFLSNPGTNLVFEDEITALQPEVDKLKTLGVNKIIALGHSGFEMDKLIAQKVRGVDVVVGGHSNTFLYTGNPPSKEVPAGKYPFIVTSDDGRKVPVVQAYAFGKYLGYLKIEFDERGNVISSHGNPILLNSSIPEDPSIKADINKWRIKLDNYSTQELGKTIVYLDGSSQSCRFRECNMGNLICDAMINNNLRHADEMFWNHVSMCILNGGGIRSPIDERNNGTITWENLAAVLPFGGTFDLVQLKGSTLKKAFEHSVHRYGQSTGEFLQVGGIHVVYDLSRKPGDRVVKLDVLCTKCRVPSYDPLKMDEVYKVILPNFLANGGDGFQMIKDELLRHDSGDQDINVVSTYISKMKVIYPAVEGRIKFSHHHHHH
Description: as §1

[2] = target: T3, Human CD73 on cells (MDA-MB-231, Jurkat CD73 knock-in, NCI-H322) (human, UniProt P21589 27-549); test: flow cytometry, MDA-MB-231 / MDA-MB-231(CD73-shRNA)
T3 construct: GPI-anchored native protein; also called native human CD73
T3 sequence: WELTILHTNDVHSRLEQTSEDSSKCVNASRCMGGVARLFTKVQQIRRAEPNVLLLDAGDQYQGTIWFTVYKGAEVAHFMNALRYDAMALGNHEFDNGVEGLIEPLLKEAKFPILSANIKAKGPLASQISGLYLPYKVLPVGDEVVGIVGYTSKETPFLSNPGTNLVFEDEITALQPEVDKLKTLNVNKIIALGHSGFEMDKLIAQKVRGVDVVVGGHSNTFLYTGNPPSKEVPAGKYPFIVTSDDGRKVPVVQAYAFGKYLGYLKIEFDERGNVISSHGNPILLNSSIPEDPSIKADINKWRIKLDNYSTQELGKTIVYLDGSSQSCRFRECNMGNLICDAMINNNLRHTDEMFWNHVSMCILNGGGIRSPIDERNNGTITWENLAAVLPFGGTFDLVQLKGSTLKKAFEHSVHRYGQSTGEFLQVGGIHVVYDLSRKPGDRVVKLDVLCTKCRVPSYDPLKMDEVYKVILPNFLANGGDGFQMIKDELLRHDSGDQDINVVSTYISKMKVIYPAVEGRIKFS

[3] = target: T4, CD73 construct with chicken N- and C-terminal domain sequence with human V144 and N185 knocked in (chicken; human); test: SPR (ProteOn), CD73 variant immobilized
T4 chain: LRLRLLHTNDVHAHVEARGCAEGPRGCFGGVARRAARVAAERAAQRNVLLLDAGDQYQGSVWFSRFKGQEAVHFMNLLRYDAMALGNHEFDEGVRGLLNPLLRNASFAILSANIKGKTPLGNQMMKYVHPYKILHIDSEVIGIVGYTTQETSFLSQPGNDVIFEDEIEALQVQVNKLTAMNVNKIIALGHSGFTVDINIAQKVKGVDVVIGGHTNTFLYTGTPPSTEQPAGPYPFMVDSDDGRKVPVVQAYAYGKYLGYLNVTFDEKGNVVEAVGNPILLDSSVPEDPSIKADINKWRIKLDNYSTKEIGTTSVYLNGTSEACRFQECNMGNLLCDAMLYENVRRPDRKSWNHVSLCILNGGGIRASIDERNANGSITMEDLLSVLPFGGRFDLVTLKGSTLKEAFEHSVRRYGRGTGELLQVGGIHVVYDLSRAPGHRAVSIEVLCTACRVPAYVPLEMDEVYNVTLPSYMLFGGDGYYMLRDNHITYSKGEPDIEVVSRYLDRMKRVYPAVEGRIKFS
Description: Binding of MEDI9447 to wild-type and mutant CD73 proteins was measured by surface plasmon resonance (SPR) using a ProteOn instrument (BioRad). CD73 crude cell supernatant protein samples were diluted to 3 µg/ml in PBS, 0.005% Tween-20, pH 7.4 (BioRad) and immobilized to ~400 RU on a HTG tris-NTA sensor chip (BioRad) pre-activated with 10 mM NiSO₄, 10 mM MES, pH 6.0 (BioRad). An equivalently diluted crude cell supernatant sample from non-transfected cells was included as a reference channel control. Sensorgrams were recorded by flowing two-fold dilutions of MEDI9447 prepared in PBS, 0.005% Tween-20, pH 7.4, ranging from 5 nM to 0.31 nM. […] Antibody binding was measured at a flow rate of 100 µL/min with a 3 min association phase and 20 min dissociation phase. The sensor chip surface was regenerated between each run by an 800 s injection of 300 mM EDTA, pH 8.5 (BioRad) at a flow rate of 30 µL/min. Binding kinetics were analyzed using the ProteOn data analysis software. Double referencing was performed and, unless noted otherwise, a 1:1 Langmuir binding model was utilized to fit the data. Some CD73 variants containing mutations within the amino acid region 171-188 fit poorly to a 1:1 model (i.e., Chi² values >10% of Rmax). Where noted, these variants were fit with a heterogenous antigen (2:1) model. […]

B1: MEDI9447 (antibody, human IgG1, lambda, V domains shown)
VH: EVQLLESGGGLVQPGGSLRLSCAASGFTFSSYAYSWVRQAPGKGLEWVSAISGSGGRTYYADSVKGRFTISRDNSKNTLYLQMNSLRAEDTAVYYCARLGYGRVDEWGRGTLVTVSS
VL: QSVLTQPPSASGTPGQRVTISCSGSLSNIGRNPVNWYQQLPGTAPKLLIYLDNLRLSGVPDRFSGSKSGTSASLAISGLQSEDEADYYCATWDDSHPGWTFGGGTKLTVLG
notes: Human IgG1-TM (L234F, L235E, P331S), lambda light chain; also called clone 10.3 antibody; 73combo3
- Kd (KO_Cterm CD73 chimera): 0.0017 nM
- koff (KO_Cterm CD73 chimera): 8.1e-06 s⁻¹
- kon (KO_Cterm CD73 chimera): 4.75e+06 M⁻¹ s⁻¹
- binding result [1]: no binding
- Mean Fluorescence Intensity Ratio (MFIR) [2]: 3.5
- Kd [3]: 0.079 nM
